Assay results from patent publication US20240000957A1 (published 2024).
*1 amine or outer side, *2 acyl side, *3 side chain or, on linkers, in order; H or OH if unused. Bridges are numbered along the chain shown (N, C = ends). Where no end group is shown, it is not given here. [ ]: non-standard residue; d: D form. TATA = O=C(CC[*:1])N1CN(C(=O)CC[*:2])CN(C(=O)CC[*:3])C1; 2Nal = N[C@@H](Cc1ccc2ccccc2c1)C(=O)O; Hyp = O=C(O)[C@@H]1C[C@@H](O)CN1; hArg = N=C(N)NCCCC[C@H](N)C(=O)O; βAla = NCCC(=O)O; Sar = CNCC(=O)O

Key:
[1] = molecular target: T1, Human EphA2 (Ecto), C-terminal polyHis (Human, UniProt P29317 24-537); test: FP competition vs Reference Compound C
T1 construct: extracellular domain; R&D systems 3035-A2 or in-house

Mouse EphA2 (Ecto) [2] = molecular target: T2, Mouse EphA2 (Ecto) (Mouse, UniProt Q03145 26-538); test: FP competition vs Reference Compound C
T2 construct: extracellular domain; Fluorescence polarisation assays; not shown: Fc fusion (R&D Systems 639-A2) or C-terminal polyHis (Sino Biological 50586-M08H)

Human EphA2 = molecular target: T3, Human EphA2 (Human, UniProt P29317 24-537, limits assumed, biotinylated, 0.95 mol biotin/monomer); test: SPR, biotinylated EphA2 on streptavidin chip
T3 construct: also called Eph receptor tyrosine kinase A2

[3] = molecular target: T4, Rat EphA2 (ligand binding), C-terminal polyHis (Rat); test: FP competition vs Reference Compound C (Study 2)
T4 construct: In-house

[4] = molecular target: T1, Human EphA2 (Ecto), C-terminal polyHis; test: FP competition vs Reference Compound C (Study 2)
Mouse EphA2 (Ecto) [5] = molecular target: T2, Mouse EphA2 (Ecto); test: FP competition vs Reference Compound C (Study 2)

T3 sequence (P29317 24-537 limits assumed): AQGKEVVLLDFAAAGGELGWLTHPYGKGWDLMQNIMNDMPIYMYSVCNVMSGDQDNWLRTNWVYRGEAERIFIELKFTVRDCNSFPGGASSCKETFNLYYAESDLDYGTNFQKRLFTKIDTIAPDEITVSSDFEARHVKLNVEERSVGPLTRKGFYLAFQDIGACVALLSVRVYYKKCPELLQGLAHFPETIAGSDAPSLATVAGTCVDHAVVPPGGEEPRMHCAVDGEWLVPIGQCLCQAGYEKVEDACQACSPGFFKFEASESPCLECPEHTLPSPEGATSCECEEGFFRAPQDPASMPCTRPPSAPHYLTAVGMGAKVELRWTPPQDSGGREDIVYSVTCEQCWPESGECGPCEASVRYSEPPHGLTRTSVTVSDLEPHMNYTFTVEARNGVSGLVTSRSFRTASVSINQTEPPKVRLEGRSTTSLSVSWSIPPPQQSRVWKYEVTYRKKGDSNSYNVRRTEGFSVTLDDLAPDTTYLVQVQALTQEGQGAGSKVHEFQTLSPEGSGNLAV
T1 sequence (P29317 24-537): as the sequence (P29317 24-537 limits assumed) above
T2 sequence (Q03145 26-538): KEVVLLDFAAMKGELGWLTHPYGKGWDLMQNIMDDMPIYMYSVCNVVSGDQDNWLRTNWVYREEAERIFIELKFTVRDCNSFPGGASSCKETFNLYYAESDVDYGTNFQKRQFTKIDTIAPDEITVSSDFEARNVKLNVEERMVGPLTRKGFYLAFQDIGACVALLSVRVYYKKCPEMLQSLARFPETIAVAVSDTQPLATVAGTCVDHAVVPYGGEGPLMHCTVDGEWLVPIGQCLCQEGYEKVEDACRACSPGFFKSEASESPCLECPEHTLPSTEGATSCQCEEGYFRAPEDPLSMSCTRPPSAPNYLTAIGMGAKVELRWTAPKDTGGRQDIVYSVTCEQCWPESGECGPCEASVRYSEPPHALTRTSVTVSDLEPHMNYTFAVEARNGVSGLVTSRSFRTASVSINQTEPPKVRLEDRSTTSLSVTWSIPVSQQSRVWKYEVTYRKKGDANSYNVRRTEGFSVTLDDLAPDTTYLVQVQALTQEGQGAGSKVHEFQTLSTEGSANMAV

| Binder | Ki [1] [nM] | Ki (Mouse EphA2 (Ecto) [2]) [nM] | other results |
| --- | --- | --- | --- |
| ACPLVNPLCLHPGWSCRGQ (linker 2-9-16 via TATA, also called Compound 87) | 2.57 | 18.6 |  |
| AXDCPLVNPLCLHPGWTC (not fully specified; N-terminal (β-Ala)-Sar10 spacer precedes SEQ ID NO: 11; HArg (homoarginine) at residue 2 of SEQ ID NO: 11; three Cys cyclised on the TATA scaffold; TrpCit-MMAE (MMAE-PABC-Cit-Trp-glutarate) on the N-terminal amine) |  |  | Kd (Human EphA2): 1.64 nM; t1/2 (Human EphA2): 3.2 min |
| ACPLVNPLCLHPGWTCLHG (N-terminal (β-Ala)-Sar10; TATA scaffold on the 3 Cys) [Compound 75] | 2.48 |  |  |
| AXDCPLVNPLCLHPGWTC (not fully specified; N-terminal (β-Ala)-Sar10 spacer precedes SEQ ID NO: 11; HArg (homoarginine) at residue 2 of SEQ ID NO: 11; three Cys cyclised on the TATA scaffold; DM1-SS- (DM1-SPDB) on the N-terminal amine) [BCY6031] |  |  | Kd (Human EphA2): 1.99 nM; t1/2 (Human EphA2): 2.3 min |
| Ac-CPLVNPLCLHPGWTCLHG (linker 1-8-15 via TATA; not fully specified (C-terminus); printed as Ac-CPLVNPLCLHPGWTCLHG) [Compound 74] | 1.76 |  |  |
| CPLVNPLCLHPGWTCLXG (not fully specified; N-terminal Ac; D-His; C-terminal -Sar6-(D-K); TATA scaffold on the 3 Cys) [Compound 78] | 15.6 | 115 |  |
| [βAla][Sar][Sar][Sar][Sar][Sar][Sar][Sar][Sar][Sar][Sar]ACPLVNPLCLHPGWSCRGQ (linker 13-20-27 via TATA; not fully specified (C-terminus); printed as (β-Ala)-Sar10-ACPLVNPLCLHPGWSCRGQ) [Compound 89] | 2.86 | 29.6 |  |
| ACPLVNPLCLHPGWTCLXG (not fully specified; N-terminal (β-Ala)-Sar10; D-His; TATA scaffold on the 3 Cys) [Compound 76] | 10 | 75.2 |  |
| RPACPLVNPLCLHPGWTCA (linker 4-11-18 via TATA; not fully specified (C-terminus)) [Compound 70] | 10.1 |  |  |
| RPPCPLVNPLCLHPGWTCA (linker 4-11-18 via TATA; not fully specified (C-terminus)) [Compound 71] | 11.1 |  |  |
| ACPLVNPLCLHPGWSCXGQ (not fully specified; N-terminal (β-Ala)-Sar10; HArg; TATA scaffold on the 3 Cys) [Compound 90] | 5.41 | 47 |  |
| ACPLVNPLCLHPGWSCRGQ (linker 2-9-16 via TATA, Bicyclic peptide on a TATA scaffold, no toxin; Made on Rink amide resin; also called Compound 87; Bicycle Compound Number 87) |  |  | t1/2 (Human EphA2): 11.3 min |
| CPLVNPLCLHPGWSCRGQ (N-terminal Ac; C-terminal -Sar6-(D-K); TATA scaffold on the 3 Cys, also called Compound 91) [BCY6042] | 5.98 | 49.9 |  |
| ACPLVNPLCMMGGWKCA (linker 2-9-16 via TATA; not fully specified (C-terminus)) [Compound 62] | 67.1 |  |  |
| CPLVNPLCLHPGWTCLHG (N-terminal Ac; C-terminal -Sar6-(D-K); TATA scaffold on the 3 Cys, also called Compound 77) [BCY6019] | 5.41 | 48.2 |  |
| ARDCPLVNPLCLHPGWTCA (linker 4-11-18 via TATA; not fully specified (C-terminus)) [Compound 65] | 6.05 | 39.1 |  |
| [βAla][Sar][Sar][Sar][Sar][Sar][Sar][Sar][Sar][Sar][Sar]A[hArg]DC[Hyp]LVNPLCLHP[dD]W[hArg]C (linker 15-22-29 via TATA; not fully specified (N-terminus, C-terminus); numbers in words are those of the source; also: DM1-SS- conjugate, site not given here, Bicycle drug conjugate (BDC)) [BCY6135] |  |  | Ki [3]: 2.9 nM |
| AXDCPLVNPLCLHPGWTCA (not fully specified; N-terminal Ac; HArg; C-terminal -Sar6-(D-K); TATA scaffold on the 3 Cys) [Compound 69] | 17.5 | 164 |  |
| Ac-CPLVNPLCLHPGWTCLHG (linker 1-8-15 via TATA; not fully specified (C-terminus); also: DM1-SS-(Me)- conjugated, site not given here, Bicycle drug conjugate (BDC)) [BCY6036] |  |  | Ki [4]: 18.6 nM |
| AXDCPLVNPLCLHPGWTC (not fully specified; as BCY6014 (N-terminal (β-Ala)-Sar10; HArg; TATA scaffold on the 3 Cys) + DM1-SS-(Me2)-, Bicycle drug conjugate (BDC)) [BCY6055] |  |  | Ki [4]: 15.8 nM |

| Binder | Ki [1] [nM] | Ki (Mouse EphA2 (Ecto) [2]) [nM] | other results |
| --- | --- | --- | --- |
| Ac-CPLVNPLCLHPGWTCLHG (linker 1-8-15 via TATA; not fully specified (C-terminus); also: TrpCit-MMAE conjugated, site not given here, Bicycle drug conjugate (BDC)) [BCY6038] |  |  | Ki [4]: 2.8 nM |
| ACPLVNPLCLMTGWSCA (linker 2-9-16 via TATA; not fully specified (C-terminus)) [Compound 61] | 242 |  |  |
| [βAla][Sar][Sar][Sar][Sar][Sar][Sar][Sar][Sar][Sar][Sar]A[hArg]DC[Hyp]LVNPLCLHP[dD]W[hArg]C (linker 15-22-29 via TATA; not fully specified (N-terminus, C-terminus); also: ValCit-MMAE conjugate, site not given here, Bicycle drug conjugate (BDC); also called BT5528) [BCY6136] |  |  | Ki [3]: 3.2 nM |
| ACPLVNPLCLHPG[2Nal]TCLHG (linker 2-9-16 via TATA; not fully specified (C-terminus); printed as ACPLVNPLCLHPG(2Nal)TCLHG) [Compound 79] | 162 |  |  |
| AXDCPLVNPLCLHPGWTC (not fully specified; N-terminal (β-Ala)-Sar10 spacer precedes SEQ ID NO: 11; HArg (homoarginine) at residue 2 of SEQ ID NO: 11; three Cys cyclised on the TATA scaffold; DM1-SS-(Me)- (DM1-SPP) on the N-terminal amine) [BCY6032] |  |  | Kd (Human EphA2): 2.1 nM; t1/2 (Human EphA2): 2.2 min |
| ACPLVNPLCLYGSWKCA (linker 2-9-16 via TATA; not fully specified (C-terminus)) [Compound 63] | 59 |  |  |
| Ac-CPLVNPLCLHPGWTCLHG (linker 1-8-15 via TATA; not fully specified (C-terminus); also: ValCit-MMAE conjugated, site not given here, Bicycle drug conjugate (BDC)) [BCY6037] |  |  | Ki [4]: 7.3 nM |
| [βAla][Sar][Sar][Sar][Sar][Sar][Sar][Sar][Sar][Sar][Sar]A[hArg]DC[Hyp]LVNPLCLHP[dD]W[hArg]C (linker 15-22-29 via TATA; not fully specified (N-terminus, C-terminus); also: ValLys-MMAE conjugate, site not given here, Bicycle drug conjugate (BDC)) [BCY6174] |  |  | Ki [3]: 3 nM |
| Ac-CPLVNPLCLHPGWTCLHG (linker 1-8-15 via TATA; not fully specified (C-terminus); also: DM1-SS- conjugated, site not given here, Bicycle drug conjugate (BDC)) [BCY6035] |  |  | Ki [4]: 15.2 nM |
| Ac-ARDCPLVNPLCLHPGWTCA (linker 4-11-18 via TATA; not fully specified (C-terminus); printed as Ac-ARDCPLVNPLCLHPGWTCA-Sar6-(D-K)) [Compound 68] | 19.3 | 166 |  |
| AXDCPLVNPLCLHPGWTC (not fully specified; as BCY6014 (N-terminal (β-Ala)-Sar10; HArg; TATA scaffold on the 3 Cys) + TrpCit-MMAE, Bicycle drug conjugate (BDC)) |  |  | Ki [4]: 5.9 nM; Ki (Mouse EphA2 (Ecto) [5]): 35.9 nM |
| AXDCPLVNPLCLHPGWTC (not fully specified; as BCY6014 (N-terminal (β-Ala)-Sar10; HArg; TATA scaffold on the 3 Cys) + Non-cleavable (MMAE), Bicycle drug conjugate (BDC)) [BCY6063] |  |  | Ki [4]: 7.8 nM; Ki (Mouse EphA2 (Ecto) [5]): 66.8 nM |
| CPLVNPLCLHPGWSCXGQ (not fully specified; N-terminal Ac; HArg; C-terminal -Sar6-(D-K); TATA scaffold on the 3 Cys) [Compound 92] | 10.6 | 75.3 |  |
| AXDCPLVNPLCLHPGWTC (not fully specified; as BCY6014 (N-terminal (β-Ala)-Sar10; HArg; TATA scaffold on the 3 Cys) + D-TrpCit-MMAE, Bicycle drug conjugate (BDC)) [BCY6062] |  |  | Ki [4]: 12.9 nM; Ki (Mouse EphA2 (Ecto) [5]): 20.3 nM |
| AXDCPLVNPLCLHPGWTC (not fully specified; as BCY6014 (N-terminal (β-Ala)-Sar10; HArg; TATA scaffold on the 3 Cys) + Non-cleavable (DM1), Bicycle drug conjugate (BDC)) [BCY6064] |  |  | Ki [4]: 12.5 nM; Ki (Mouse EphA2 (Ecto) [5]): 40.7 nM |
| ACPLVNPLCMIGNWTCA (linker 2-9-16 via TATA; not fully specified (C-terminus)) [Compound 60] | 96.2 |  |  |
| AXDCPLVNPLCLHPGWTC (N-terminal (β-Ala)-Sar10; HArg; TATA scaffold on the 3 Cys, also called Compound 67) [BCY6014] | 8.51 | 61.7 |  |
| ACPLVNPLCLLDGWTCA (linker 2-9-16 via TATA; not fully specified (C-terminus)) [Compound 58] | 38.4 |  |  |
| AXDCPLVNPLCLHPGWTC (not fully specified; as BCY6014 (N-terminal (β-Ala)-Sar10; HArg; TATA scaffold on the 3 Cys) + DM1-SS-(Me)-SO3H-, Bicycle drug conjugate (BDC)) [BCY6077] |  |  | Ki [4]: 6.5 nM; Ki (Mouse EphA2 (Ecto) [5]): 25.3 nM |
| ACPLVNPLCLMPGWGCA (linker 2-9-16 via TATA; not fully specified (C-terminus)) [Compound 59] | 114 |  |  |
